# Measured values reported in the nanobody polyreactivity screen of Harvey et al. (2022).
# Assay: yeast display, Sf9 membrane polyspecificity reagent, FACS + sequencing; frameworks hold sequencing errors
# Procedure, shortened: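 Sorting gates, low and high (top ~1%), were placed on anti-HA fluorescence to track expression and on streptavidin fluorescence to track reagent binding. A clone's polyreactivity label is taken from the gate it came out of. The reagent was 10% biotinylated, detergent-solubilized Sf9 membrane, applied for 1 hour at 4 °C to galactose-induced yeast display cells.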
row,Sequence,polyreactivity (PSR sort gate)
1,QVQLVESGGGIVQAGGSLRLSCAASGSILYFNAMGWYRQAPGKERELVAAISRTGSRTYYADSVKGRFTISRDNAKNTVYLQMNSLKPEDTAVYYCAAYNGITSHLRFDYWGQGTQVTVSS,high polyreactivity
2,QVQLVESGGGLVQAGGSLRLSCAASGIIFAHYAMGWYRQAPGKERELVAAISRGGSSTYYADSVKGRFTISRDNAKNTVYLQMNSLKPEDTAVDYCAAYGPKVIGPKTSYSSSRYDYWGQGTQVTVSS,high polyreactivity
3,QVQLVESGAGLVQAGGSLRLSCAASGSIFKYNTMGWYRQAPGKERELVATISGGGRTYYADSVKGRFTISRDNAKNTVYLQMNSLKPEDTAVYYCAARKRGTFTYDYWGQGTQVTVSS,high polyreactivity
4,QVQLVESGGGLVQAGGSLRLSCAASGSIFRRYATGWYRQAPGKERQLVAAISSGGSTYADSVKGRFTISRDNAKNTVYLQMNSLKPEDTAVYYCNASGRWYYGRRYDYWGHGTQVTVSS,low polyreactivity
5,QVQLVESGGGLVQAGGSLRLSCAASGNTFWQYAMGWYRQAPGKERELVAAITRSTGSTYYADSVKGRFTISRDNAKNTVYLQMNSLKPEDTAVYYCAADFYRHYFRVDSWGQGTQVTVSS,low polyreactivity
6,QVQLVESGGGLVQAGGSLRLSCAASGRILRGYVMGWSRQAPGKERELVATITGRGGSTYYADSVKGRFTISRDNAKNTVYLQMNSLKPEDTAVYYCNKDGYPYFGRSEYWGQGTQVTVSS,low polyreactivity
7,QVQLVESGGGLVQAGCSLRLSCAASGRTFVQYFMGWYRQAPGKERELVAAITSSGGSTYADSVKGRFTISRDNAKNTVFLHMNSLKPEDTAVYYCAADYLDGVGDVEHDYWGQGTQVTVSS,low polyreactivity
8,QVQLVESGGGLVHAGGSLRLSCAASGSIFNVYAMGWYRQAPGKERELVAAITQSGGSTYYADSVKGRFTISRDNAKNTVYLQMNSLKPEDTAVSYCAADNRYTYYYWGQCTQVTVSS,low polyreactivity
9,QVQLVESGGGLVQAGGSLRLSCAASGSTFSYMGWYRQAPGKERELVAAISYRGGRTYYADSVKGRFTISRDNAKNTVYLQMNSLTPEDTAVYYCNADGGRTYYSRYDYWGQGTQVTVSS,low polyreactivity
10,QGQLVESGGRLVQAGGSLRLSCAASGRIFGWYDMGWYREEPGKERELVAAINWSGGSTYYADSVKGRFTISRDNEKNTFYLQMNCLKPEDTAVYYCAADVAQVGYQVGVSEIYPGYEYWGQGTQVNVSS,low polyreactivity
11,QVQLVESGGGLVQAGGSLRLSCAASGSILGHYAMGWYRQAPGKERELVAAISWSGGSTYYADSVKGRFTISRDNAKNTVYLQMNSLKPEDTAVYYCNAYLSPKQPLSPPDPTFEGGYWGQGTQVTVSS,low polyreactivity
12,QVQLVESGGGLVQAGGSLRLSCAASGGIFFTYAMGWYRQAPGKERELVAGISWSDGSTYADSVKGRFTISRDNAKNTVYLQMNSLKPEDTAVYYCNKRIYDLFLSPAAGGYWGQGTQVTVSS,low polyreactivity
13,QFQLVESGGGLVQAGGSLRLSCAASGSIFEPNAMGWYRQAPGKEREFVAAISGSGGSTYYADSVKGRFTISRDNAKNTVYLQMNSLIQEDTAVYYCATRGKRSYFRTFYYWGQGTQVTVSS,high polyreactivity
14,QVQLVESGGGLVQAGGSLRLSCAASGITLQNNAMGWYRQAPGKERELVAAITGSGGSTYYADSVKGRFTISRDNAKNTVYLQMNSLKPEDTAVYYCATDGIFHLGVYTPYDYWGQGTQVTVSS,low polyreactivity
15,QVQLVESGGGLVQAGGSLRLSCAASGRIFRYYAMGWYRQAPGKETELVAAINWSGGSTYYADSVKGRFTISRDNAKNTVYLQMNSLKPEDTAVYYCNRRAYIRYDSSSLDYWGQGTQVTVSS,low polyreactivity
16,QVQLVESGGGLVQAGGSLRLSCASSGITFRVYAMGWYRQAPGKERELVAGISRGGRTSYADSVKGRFTISRDNAKNTVYLQMNSLKPEDTAVYYCAARQYRHRVKYYYWGQGTQVTVSS,high polyreactivity
17,QVQLVESGGGLVQAGGSLRLSCAASGSTFARNAMGWYRQAPGKERELVAAISSSGGRTYYADSVKGRFTISRDNAKNTVYLQMNSLKPEDTAVYSCAARTFGSVHSYRGGYWGQGTQVTVSS,high polyreactivity
18,QVQLVESGGGLVQAGGSLRLSCAASGSTFDGNAMGWYRQAPGKERELVASITQRASNTYYADSVKGRFTISRDNAKNTVDLQMNSLKPEDTAVYYCARQWYWRPVYYIGQGYEYWGQGTQVTVSS,low polyreactivity
19,QVQLVESGGGLVQAGGSLRLSCAASGLIFSWYAMGWYRQAPGKEREFVAGISKGGDSTYYADSVKGRFTISRDNAKNTVYLQMNSLKPEDTAVYYCAADWWQGTSHYWGGAYNYWGQGTQVTVSS,low polyreactivity
20,QVQLVESGGGLVQAGGSLRLSCAASGSTFGTYVMGWYRQAPGKERELVAAISKRGGRTYYADSVKGRFTISRDNAKNTVYLQMNSLKPEDTAVYYCNAVYLYSGSSARYYWGQGTQVTVSS,high polyreactivity
21,QVQLVESGGGLVQAGGSLRLSRAASGRIFHLYAMGWYRQAPGKERELVAAITGRGGSTYYADSVKGRFTISRDNAKNTVYLQMNSLKPEDTAVYYCAAYEFGFLRYYSGRSYYYWGQGTQVTVSS,high polyreactivity
22,QVQLVESGGGLVQAGGSLRLSCADSGSTLYRYAMGWYRQAPGKERELVDAISSAGSTHYADSVKGRFTISRDNAKNTVYLQMNSLKPEDTAVYYCNAVRKTFDYNYWGQGTQVTVSS,high polyreactivity
